Experimental data as given in paper PMC2937569 (Biochemistry, 2010).
Numbering of substitutions follows the chain as printed. Names and notes keep the numbering of the source.

B1: wild-type (WT) RDS (retinal degeneration slow; Peripherin/rds), recombinant in COS-1 cells (natural protein, murine, UniProt P15499 1-346, looked up)
chain: MALLKVKFDQKKRVKLAQGLWLMNWLSVLAGIVLFSLGLFLKIELRKRSEVMNNSESHFVPNSLIGVGVLSCVFNSLAGKICYDALDPAKYAKWKPWLKPYLAVCIFFNVILFLVALCCFLLRGSLESTLAYGLKNGMKYYRDTDTPGRCFMKKTIDMLQIEFKCCGNNGFRDWFEIQWISNRYLDFSSKEVKDRIKSNVDGRYLVDGVPFSCCNPSSPRPCIQYQLTNNSAHYSYDHQTEELNLWLRGCRAALLNYYSSLMNSMGVVTLLVWLFEVSITAGLRYLHTALESVSNPEDPECESEGWLLEKSVPETWKAFLESFKKLGKSNQVEAEGADAGPAPEAG
B2: N244H RDS, recombinant in COS-1 cells (natural protein, murine, UniProt P15499 1-346, looked up)
chain: B1 chain with N244H
B3: N244K RDS, recombinant in COS-1 cells (natural protein, murine, UniProt P15499 1-346, looked up)
chain: B1 chain with N244K

What was measured:
[1] = biological target: the molecule itself; experiment: non-reducing SDS-PAGE/Western blot
[2] = biological target: the molecule itself; experiment: velocity sedimentation on a sucrose gradient

Protein	stoichiometry N [1]	stoichiometry N [2]
B1	2	4
B2	2	4
B3		4
